Results reported in patent publication US20110152341.

T1: APP-derived peptide substrate swedish (sw), H-GLTNIKTEEISEVNLDAEFRHDSGYEVHHQ-NH2
T1 chain: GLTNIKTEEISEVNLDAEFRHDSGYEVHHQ

T2: APP-derived peptide substrate wildtyp (wt), H-GLTNIKTEEISEVKMDAEFRHDSGYEVHHQ-NH2
T2 chain: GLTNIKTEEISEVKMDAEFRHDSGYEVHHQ

T3: APP-derived peptide substrate D597isoD, H-GLTNIKTEEISEVKMi…-NH2
T3 chain: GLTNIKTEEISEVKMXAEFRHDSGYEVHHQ

T4: APP-derived peptide substrate sw D597isoD, H-GLTNIKTEEISEVNLi…-NH2
T4 chain: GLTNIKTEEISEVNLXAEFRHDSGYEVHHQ

T5: APP-derived peptide substrate sw E599Q, H-GLTNIKTEEISEVNLDAQFRHDSGYEVHHQ-NH2
T5 chain: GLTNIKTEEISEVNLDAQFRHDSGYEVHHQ

T6: APP-derived peptide substrate E599Q, H-GLTNIKTEEISEVKMDAQFRHDSGYEVHHQ-NH2
T6 chain: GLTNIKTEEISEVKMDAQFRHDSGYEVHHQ


Columns and labels:
[1] = biological target: T1, APP-derived peptide substrate swedish …
[2] = biological target: T2, APP-derived peptide substrate wildtyp …
[3] = biological target: T3, APP-derived peptide substrate D597isoD, …
[4] = biological target: T4, APP-derived peptide substrate sw …
[5] = biological target: T5, APP-derived peptide substrate sw E599Q, …
[6] = biological target: T6, APP-derived peptide substrate E599Q, …
[7] = biological target: Human APP with mutation E599Q overexpressed in HEK293 cells (pcDNA-hAPP/E3Q)
Sequence of Human APP with mutation E599Q overexpressed in HEK293 cells (pcDNA-hAPP/E3Q) (chain, as listed by the source E599Q): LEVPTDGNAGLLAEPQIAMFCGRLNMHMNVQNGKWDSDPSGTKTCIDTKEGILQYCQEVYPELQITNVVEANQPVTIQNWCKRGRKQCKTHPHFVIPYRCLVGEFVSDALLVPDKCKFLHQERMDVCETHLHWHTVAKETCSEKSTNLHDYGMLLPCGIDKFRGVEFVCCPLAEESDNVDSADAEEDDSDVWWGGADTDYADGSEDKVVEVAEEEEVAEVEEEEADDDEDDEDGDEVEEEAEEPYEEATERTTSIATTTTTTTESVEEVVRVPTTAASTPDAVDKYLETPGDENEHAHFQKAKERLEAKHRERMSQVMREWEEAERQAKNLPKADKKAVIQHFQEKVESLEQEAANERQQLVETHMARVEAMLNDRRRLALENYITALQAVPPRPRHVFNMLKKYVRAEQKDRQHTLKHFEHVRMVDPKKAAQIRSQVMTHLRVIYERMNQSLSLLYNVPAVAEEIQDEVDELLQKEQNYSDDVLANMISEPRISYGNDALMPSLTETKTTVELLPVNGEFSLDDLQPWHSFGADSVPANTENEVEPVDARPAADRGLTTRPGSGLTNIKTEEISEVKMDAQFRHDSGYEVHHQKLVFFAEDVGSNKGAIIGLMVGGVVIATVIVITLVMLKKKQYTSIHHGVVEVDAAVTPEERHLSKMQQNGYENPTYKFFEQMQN

[8] = biological target: Human APP with swedish mutation K595N, M596L overexpressed in HEK293 cells (pcDNA-hAPPsw)
[9] = biological target: Human APP wildtyp transiently overexpressed in HEK293 cells (pcDNA-hAPP)

Protein | peptide cleavage, fragments by MALDI-TOF mass spectrometry (numbering according to substrate 1-30) [1] | peptide cleavage, fragments by MALDI-TOF mass spectrometry (numbering according to substrate 1-30) [2] | peptide cleavage, fragments by MALDI-TOF mass spectrometry (numbering according to substrate 1-30) [3] | peptide cleavage, fragments by MALDI-TOF mass spectrometry (numbering according to substrate 1-30) [4] | peptide cleavage, fragments by MALDI-TOF mass spectrometry (numbering according to substrate 1-30) [5] | peptide cleavage, fragments by MALDI-TOF mass spectrometry (numbering according to substrate 1-30) [6] | amount of secreted Aβ (ELISA from IBL, non specific for the Aβ N-terminus) [7] | secreted Aβ estimated with antibody 6E10 (ELISA) [7] | secreted Aβ estimated with antibody 6E10 (ELISA) [8] | amount of secreted Aβ (ELISA from IBL, non specific for the Aβ N-terminus) [9] | generated Aβ species by urea western-blot after immuno-precipitation [9] | secreted Aβ estimated with antibody 6E10 (ELISA) [9] | secretion of Aβ (ELISA, IBL kit with antibody 6E10), with and without 20 µM actinonin [9]
Recombinant human meprin α (R&D systems) (protein) VPIKYLPEENVHDADFGEQKDISEINLAAGLDLFQGDILLQKSRNGLRDPNTRWTFPIPYILADNLGLNAKGAILYAFEMFRLKSCVDFKPYEGESSYIIFQQFDGCWSEVGDQHVGQNISIGQGCAYKAIIEHEILHALGFYHEQSRTDRDDYVNIWWDQILSGYQHNFDTYDDSLITDLNTPYDYESLMHYQPFSFNKNASVPTITAKIPEFNSIIGQRLDFSAIDLERLNRMYNCTTTHTLLDHCTFEKANICGMIQGTRDDTDWAHQDSAQAGEVDHTLLGQCTGAGYFMQFSTSSGSAEEAALLESRILYPKRKQQCLQFFYKMTGSPSDRLVVWVRRDDSTGNVRKLVKVQTFQGDDDHNWKIAHVVLKEEQKFRYLFQGTKGDPQNSTGGIYLDDITLTETPCPTGVWTVRNFSQVLENTSKGDKLQSPRFYNSEGYGFGVTLYPNSRESSGYLRLAFHVCSGENDAILEWPVENRQVIITILDQEPDVRNRMSSSMVFTTSKSHTSPAINDTVIWDRPSRVGTYHTDCNCFRSIDLGWSGFISHQMLKRRSFLKNDDLIIFVDFEDITHLSQTEVPTKGKRLSPQGLILQGQEQQVSEEGSGKAMLEEALPVSLSQGQPSRQKRSVENTGPLEDHNWPQYFRDPCDPNPCQNDGICVNVKGMASCRCISGHAFFYTGERCQAV | The fragments 5-30, 7-30 and 16-30 were identified. | The fragments 5-30, 7-30, 17-30 and 16-30 were identified. | The fragments 5-30, 7-30, 1-21, 1-15, 17-30 and 16-30 were identified. | The fragments 5-30 and 7-30 were identified. | The fragments 1-21, 7-30 and 5-30 were identified. | The fragments 5-30, 7-30, 5-21, 12-30 and 7-21 were identified. |  |  |  |  |  |  | 
Human meprin β transiently overexpressed in HEK293 cells (pcDNA-hMPβ) (protein) NSIIGEKYRWPHTIPYVLEDSLEMNAKGVILNAFERYRLKTCIDFKPWAGETNYISVFKGSGCWSSVGNRRVGKQELSIGANCDRIATVQHEFLHALGFWHEQSRSDRDDYVRIMWDRILSGREHNFNTYSDDISDSLNVPYDYTSVMHYSKTAFQNGTEPTIVTRISDFEDVIGQRMDFSDSDLLKLNQLYNCSSSLSFMDSCSFELENVCGMIQSSGDNADWQRVSQVPRGPESDHSNMGQCQGSGFFMHFDSSSVNVGATAVLESRTLYPKRGFQCLQFYLYNSGSESDQLNIYIREYSADNVDGNLTLVEEIKEIPTGSWQLYHVTLKVTKKFRVVFEGRKGSGASLGGLSIDDINLSETRCPHHIWHIRNFTQFIGSPNGTLYSPPFYSSKGYAFQIYLNLAHVTNAGIYFHLISGANDDQLQWPCPWQQATMTLLDQNPDIRQRMSNQRSITTDPFMTTDNGNYFWDRPSKVGTVALFSNGTQFRRGGGYGTSAFITHERLKSRDFIKGDDVYILLTVEDISHLNSTQIQLTPAPSVQDLCSKTTCKNDGVCTVRDGKAECRCQSGEDWWYMGERCEKRGSTRDTIVIAVSSTVAVFALMLIITLVSVYCTRKKYRERMSSNRPNLTPQNQHAF |  |  |  |  |  |  | significantly increased for APPwt and APP/E3Q | Secretion of Aβ is significantly increased after transfection with pcDNA-hMPβ and pcDNA-hAPP wildtyp, swedish and E3Q. | Secretion of Aβ is significantly increased after transfection with pcDNA-hMPβ and pcDNA-hAPP wildtyp, swedish and E3Q. | significantly increased for APPwt and APP/E3Q | revealed the formation of an additional Aβ species after co-transfection with hAPP and human meprin β compared to transfection with hAPP. This additional Aβ species co-migrates with Aβ3-40. | Secretion of Aβ is significantly increased after transfection with pcDNA-hMPβ and pcDNA-hAPP wildtyp, swedish and E3Q. | Secretion of Aβ is significantly increased in HEK293 after transient overexpression of hAPP and hMPβ (see FIG. 26). This increase is reduced to almost the basal level by the addition of 20 µM actinonin.
Recombinant human meprin β (R&D systems) (protein) TPENFDVDGGMDQDIFDINEGLGLDLFEGDIRLDRAQIRNSIIGEKYRWPHTIPYVLEDSLEMNAKGVILNAFERYRLKTCIDFKPWAGETNYISVFKGSGCWSSVGNRRVGKQELSIGANCDRIATVQHEFLHALGFWHEQSRSDRDDYVRIMWDRILSGREHNFNTYSDDISDSLNVPYDYTSVMHYSKTAFQNGTEPTIVTRISDFEDVIGQRMDFSDSDLLKLNQLYNCSSSLSFMDSCSFELENVCGMIQSSGDNADWQRVSQVPRGPESDHSNMGQCQGSGFFMHFDSSSVNVGATAVLESRTLYPKRGFQCLQFYLYNSGSESDQLNIYIREYSADNVDGNLTLVEEIKEIPTGSWQLYHVTLKVTKKFRVVFEGRKGSGASLGGLSIDDINLSETRCPHHIWHIRNFTQFIGSPNGTLYSPPFYSSKGYAFQIYLNLAHVTNAGIYFHLISGANDDQLQWPCPWQQATMTLLDQNPDIRQRMSNQRSITTDPFMTTDNGNYFWDRPSKVGTVALFSNGTQFRRGGGYGTSAFITHERLKSRDFIKGDDVYILLTVEDISHLNSTQIQLTPAPSVQDLCSKTTCKNDGVCTVRDGKAECRCQSGEDWWYMGERCEKRGSTRDT | The fragments 16-30, 17-30 1-15 and 18-30 were identified. | The fragments 1-16, 1-15, 17-30, and 18-30 were identified. | The fragments 1-15, 1-16, 17-30 and 16-30 were identified. | The fragment 12-30 were identified. | The fragments 16-30, 1-15, 9-21 and 9-20 were identified. | The fragments 8-30, 9-30, 1-22, 1-21, 12-30 17-30 18-30 9-21 were identified. |  |  |  |  |  |  | 
